Test results: patent US20120156130A1 (published 2012)

Target: HER3 on DU-145 and PC-3 prostate cancer cells (UniProt P21860 20-1342, limits assumed)
Test: cell-based or functional assay

Chain of HER3 on DU-145 and PC-3 prostate cancer cells (P21860 20-1342 limits assumed): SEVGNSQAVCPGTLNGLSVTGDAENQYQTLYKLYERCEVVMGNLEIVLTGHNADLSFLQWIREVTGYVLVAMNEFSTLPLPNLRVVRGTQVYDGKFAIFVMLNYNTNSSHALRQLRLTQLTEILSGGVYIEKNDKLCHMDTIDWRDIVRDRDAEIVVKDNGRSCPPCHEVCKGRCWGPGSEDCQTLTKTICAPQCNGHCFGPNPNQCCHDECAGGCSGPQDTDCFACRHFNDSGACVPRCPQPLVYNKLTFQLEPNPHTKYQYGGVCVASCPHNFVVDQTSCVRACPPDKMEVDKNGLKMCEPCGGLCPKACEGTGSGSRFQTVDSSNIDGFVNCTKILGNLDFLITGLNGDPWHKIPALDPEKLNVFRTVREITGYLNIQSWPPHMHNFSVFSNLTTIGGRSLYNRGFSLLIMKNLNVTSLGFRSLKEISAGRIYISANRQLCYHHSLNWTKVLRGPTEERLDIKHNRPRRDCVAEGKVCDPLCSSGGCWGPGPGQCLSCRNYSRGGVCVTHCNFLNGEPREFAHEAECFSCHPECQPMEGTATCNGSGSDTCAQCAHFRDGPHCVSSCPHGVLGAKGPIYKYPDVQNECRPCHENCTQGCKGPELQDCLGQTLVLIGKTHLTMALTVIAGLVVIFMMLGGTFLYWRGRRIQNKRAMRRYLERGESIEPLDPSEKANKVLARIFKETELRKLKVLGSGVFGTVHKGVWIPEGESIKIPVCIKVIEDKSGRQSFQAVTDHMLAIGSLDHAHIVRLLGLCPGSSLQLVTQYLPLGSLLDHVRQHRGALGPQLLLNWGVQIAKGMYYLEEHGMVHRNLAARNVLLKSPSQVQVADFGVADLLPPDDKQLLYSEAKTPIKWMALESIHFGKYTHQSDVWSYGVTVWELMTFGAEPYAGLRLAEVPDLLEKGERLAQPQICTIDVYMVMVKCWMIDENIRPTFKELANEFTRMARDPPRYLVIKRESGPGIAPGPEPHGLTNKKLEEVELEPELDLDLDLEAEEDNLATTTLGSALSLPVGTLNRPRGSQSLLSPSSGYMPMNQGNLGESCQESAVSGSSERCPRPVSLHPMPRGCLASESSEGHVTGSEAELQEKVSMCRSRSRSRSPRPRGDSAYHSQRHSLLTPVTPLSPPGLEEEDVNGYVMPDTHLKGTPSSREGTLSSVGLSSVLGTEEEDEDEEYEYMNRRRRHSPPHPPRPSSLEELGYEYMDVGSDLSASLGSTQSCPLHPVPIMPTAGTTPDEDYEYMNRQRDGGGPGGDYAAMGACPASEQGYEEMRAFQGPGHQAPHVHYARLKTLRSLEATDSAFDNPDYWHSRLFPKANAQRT

| Binder | inhibition in colony formation (anchorage independent growth of PC-3 cells, soft agar) |
| --- | --- |
| U1-59, fully human anti-HER3 monoclonal antibody (antibody, V domains shown) VH: QVQLQQWGAGLLKPSETLSLTCAVYGGSFSGYYWSWIRQPPGKGLEWIGEINHSGSTNYNPSLKSRVTISVETSKNQFSLKLSSVTAADTAVYYCARDKWTWYFDLWGRGTLVTVSS VL: not shown | 78% |
| U1-53, anti-HER3 antibody (antibody, V domains shown) VH: EVQLVESGGGLVQPGGSLRLSCAASGFTFSIYSMNWVRQAPGKGLEWVSYISSSSSTIYYADSVKGRFTISRDNAKNSLYLQMNSLRDEDTAVYYCARDRGDFDAFDIWGQGTMVTVSS VL: DIQMTQSPSSLSASVGDRVTITCQASQDITNYLNWYQQKPGKAPKLLIYDASNLETGVPSRFSGSGSGTDFTFTISSLQPEDIATYNCQQCENFPITFGQGTRLEIK | 78% |
| U1-49, anti-HER3 antibody (antibody, V domains shown) VH: not shown VL: DILMTQTPLSLSVTPGQPASISCKSSQSLLLSDGGTYLYWYLQKPGQPPQLLIYEVSNRFSGVPDRFSGSGSGTDFTLKISRVEAEDVGVYYCMQSMQLPITFGQGTRLEIK | 52% |
